Data on one substance can be found in patent publication US20230133775A1.

For this assay, the target named is Leucine-rich repeat-containing protein 15 (LRRC15) on LRRC15-expressing cells (UniProt Q8TF66). In words: cell-based or functional assay.
Chain of Leucine-rich repeat-containing protein 15 (LRRC15) on LRRC15-expressing cells (Q8TF66 22-581 limits assumed): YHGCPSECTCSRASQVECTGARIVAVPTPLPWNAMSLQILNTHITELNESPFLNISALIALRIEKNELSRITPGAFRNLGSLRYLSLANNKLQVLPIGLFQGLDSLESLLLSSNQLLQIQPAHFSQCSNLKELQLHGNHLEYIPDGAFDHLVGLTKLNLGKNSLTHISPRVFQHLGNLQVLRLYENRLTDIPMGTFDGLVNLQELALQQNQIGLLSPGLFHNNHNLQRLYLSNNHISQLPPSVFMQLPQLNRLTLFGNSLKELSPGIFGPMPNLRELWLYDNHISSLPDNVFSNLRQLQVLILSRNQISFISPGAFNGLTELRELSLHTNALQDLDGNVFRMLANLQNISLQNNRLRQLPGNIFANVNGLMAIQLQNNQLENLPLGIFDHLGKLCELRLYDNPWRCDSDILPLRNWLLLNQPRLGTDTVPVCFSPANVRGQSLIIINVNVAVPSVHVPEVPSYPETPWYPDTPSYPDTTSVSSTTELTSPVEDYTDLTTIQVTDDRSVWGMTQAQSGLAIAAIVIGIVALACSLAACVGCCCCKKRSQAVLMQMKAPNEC

The substance “non-specific low fucose isotype control (IgG1-LF) (antibody)” displayed a target cell death in the ADCC assay with NK92-CD16 effector cells of less than 30%.
